Earlier results in PMC12655228.

Molecular target: HER2 (Homo sapiens) (UniProt P04626)

In the case of Trastuzumab, the Kd is given as 0.1 nM.
